Assays:
[1] = molecular target: T1, nSR100 (Mus musculus, UniProt Q8BKA3); assay: Regulation by nSR100: microexon inclusion level (PSI) by RNA-Seq in mouse N2A cells depleted of nSR100 (Table 2); type: cell-based; details: YES/NO
T1 construct: host or cells: mouse N2A cells
T1 sequence (Q8BKA3 1-608): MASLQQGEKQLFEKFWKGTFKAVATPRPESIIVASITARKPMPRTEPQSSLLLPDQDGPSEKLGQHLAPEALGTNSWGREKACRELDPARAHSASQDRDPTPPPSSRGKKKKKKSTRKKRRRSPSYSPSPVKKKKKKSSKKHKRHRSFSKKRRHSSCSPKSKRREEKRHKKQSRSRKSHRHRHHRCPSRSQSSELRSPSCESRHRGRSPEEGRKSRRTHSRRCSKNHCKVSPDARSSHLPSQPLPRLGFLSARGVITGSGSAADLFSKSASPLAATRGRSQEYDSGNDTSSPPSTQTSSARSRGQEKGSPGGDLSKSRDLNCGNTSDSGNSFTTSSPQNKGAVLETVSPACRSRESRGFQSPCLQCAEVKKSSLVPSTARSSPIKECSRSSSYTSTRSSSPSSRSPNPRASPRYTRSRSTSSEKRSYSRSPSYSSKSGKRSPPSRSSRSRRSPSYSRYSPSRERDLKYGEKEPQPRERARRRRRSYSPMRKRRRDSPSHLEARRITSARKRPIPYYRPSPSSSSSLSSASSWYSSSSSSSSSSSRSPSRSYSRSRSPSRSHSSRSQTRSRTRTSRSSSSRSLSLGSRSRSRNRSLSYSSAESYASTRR
Description: A-H) Percent of neural-regulated exons within each length class that is affected at 15<|ΔPSI|<25 and |ΔPSI|>25 by (A) RBFOX1 knockdown in human neural precursor cells; (B) MBNL1 and MBNL2 double knockdown in human HeLa cells; (C) ESRP1 knockdown in human PNT2 cells; (D) nSR100/Srrm4 knockdown in mouse N2A cells; (E) Ptbp1 knockdown in mouse N2A cells; (F) Ptbp2 knockout in mouse cortex (P1 stage); (G) Ptbp2 knockout in mouse embryonic brain (18.5 days post-conception); and (H) Rbfox1 knockout. p values correspond to two-sided proportion tests of regulated versus non-regulated events. I) Expression of nSR100 in different isolated brain cell types (Zhang et al., 2014). Error bars indicate SEM. […]
An RNA-Seq analysis pipeline was developed to detect and quantify all AS event classes involving all hypothetically possible splice junctions formed by the usage of annotated and unannotated splice sites, including those that demarcate microexons. […]
A multi-module analysis pipeline was developed that uses RNA-Seq, expressed sequence tag (EST) and cDNA data, as well as gene annotations and evolutionary conservation, to assemble libraries of exon-exon-junctions (EEJs) for subsequent read alignment to detect and quantify AS events in RNA-Seq data. […] Alt3 or Alt5 events were quantified based on the fraction of reads supporting the usage of each alternative splice site. […]

[2] = molecular target: T1, nSR100; assay: AP-MS nSR100 interaction partners from mouse N2A cells (Table 5); type: binding; details: for Spectra (number of spectra for the prey in the purification of the bait): AP-MS
Description: By applying affinity purification coupled to mass-spectrometry (AP-MS), several interaction nSR100 partner proteins were detected that provide insight into mechanisms of post-translational regulation of nSR100 levels.

B1: Fip1l1 (protein, UniProt Q9D824 1-581, looked up)
Pre-mRNA 3'-end-processing …: MSAGEVERLVELSGGTGGDEEEEWLYGGPWDVHVHSDLAKDLDENEVERPEEENASANPPSGIEEEAAENGVAKPKVTETEDDSDSDSDDDEDDVHVTIGDIKTGAPQYGSYGTAPVNLNIKAGGRVYGNTGTKVKGVDLDAPGSINGVPLLEVDLDSFEDKPWRKPGADLSDYFNYGFNEDTWKAYCEKQKRIRMGLEVIPVTSTTNKITVQQGRTGNSEKEAALPSTKAEFTSPPSLFKTGLPPSRNSTSSQSQTSTASRKASSSVGKWQDRYGRAESPDLRRLPGAIDVIGQTITISRVEGRRRANENSNIQVLSDRSATEVDNNFSKPPPFFPPGAPPTHLPPPPFLPPPPTVSTAPPLIPPPGIPITVPPPGFPPPPGAPPPSLIPTIESGHSSGYDSRSARAFPYGNVAFPHLTSSAPSWPSLVDTTKQWDYYARREKDRDRDRERDRDRERERDRDRERERTRERERERDHSPTPSVFNSDEERYRYREYAERGYERHRASREKEERHRERRHREKEETRHKSSRSNSRRRHESEEGDSHRRHKHKKSKRSKEGKEAGSEPVPEQESTEAAPAE
Regulation by nSR100 [1]: NO (regulation may occur but does not meet a miminal threshold change of PSI≥10) | AvgP (average of the SAINT scores) ([2]; bait Srrm4): 1 | MaxP (maximal SAINT score) ([2]; bait Srrm4): 1 | FoldChange between the prey Avg spectra of the bait and control purifications ([2]; bait Srrm4, 0.1 added to prevent division by 0): 90 | AvgSpec (average number of spectra per replicate) ([2]; bait Srrm4, 2 replicates): 9 | Spectra (number of spectra for the prey in the purification of the bait) ([2]; bait Srrm4, biological replicate 1 (first number of the cell)): 8 | Spectra (number of spectra for the prey in the purification of the bait) ([2]; bait Srrm4, biological replicate 2 (second number of the cell)): 10 | SpecSum ([2]; bait Srrm4, sum of spectra over 2 replicates): 18

Reference: patent US10772928B2, “Modulation and detection of a neuronal alternative splicing regulatory network for treatment and diagnosis of neurological disorders” (The Governing Council of the University of Toronto, priority 2014, dated 2020)
